Experimental data: US20250188136A1, “AV3 MUTANT POLYPEPTIDES FOR PEST CONTROL” (Vestaron Corporation, priority 2021, published 2025)
Where “and” joins values, the source holds several entries; their conditions need not be identical. Equal values may be shown once. Entries after “also recorded” stand apart in the source; their conditions may differ. Ends that are not written are not given here.

Key:
[1] = Proteolytic resistance of Av3b mutants during production-strain fermentation (rpHPLC); format: physicochemical; conditions: for Degradation?: mutant strain fermentation at pH 6.5, 140 hours, rpHPLC; for degradation product during fermentation (HPLC): production strain fermentation at pH 6.5, rpHPLC
Protocol: The mutants in the table below were evaluated for stability in fermentation beer. Fermentation conditions and HPLC analysis were performed as described above. The mutant production strains were generated using YCT306 K. lactis strain. The production of mutants was performed as described in Example 2; fermentation conditions were performed using the same fermentation process described above regarding the Av3b production strain, with pH control at pH 6.5. […] To identify the mutant with proteolytic resistance, the mutant strains were grown under the same fermentation conditions as Av3b, and samples were taken throughout the fermentation process. The samples taken at 140 hour of fermentation process were analyzed in rpHPLC.

[2] = DASbox small-scale fermentation, degradation by HPLC and LC/MS; format: physicochemical; conditions: DASbox fed batch fermentation runs
Protocol: DASbox® is a parallel bioreactor system (Eppendorf, 175 Freshwater Blvd, Enfield, CT 06082, USA). The DASbox system used here contains 8 fermentation vessels with 250 mL volume capacity, allowing 8 small scale fermentation runs simultaneously. The DASbox fermentation runs were performed according to the manufacturer's instructions, and using the fermentation conditions described herein.
The screening of the Av3b mutants was conducted using a fed batch process in aerobic bioreactor. Reactors were initially filled to ˜45% capacity with a rich culture media containing 5-20 g/L of a carbon source such as glucose, sorbitol, or lactose, 5-20 g/L phosphoric acid, 0.1-1.5 g/L Calcium sulfate, 5-15 g/L Potassium sulfate, 0.5-10 g/L Magnesium sulfate heptahydrate, 1-5 g/L potassium hydroxide, and 10-60 g/L of corn steep liquor. The temperature of the reactor was maintained between 25-35° C. for the duration of the fermentation. The pH was held constant between 4-5.5 with the addition of 15% ammonium hydroxide. Dissolved oxygen was held constant by sparging air between 0.5-1.5 volume/volume/min and by increasing agitation to maintain a set point of 10-30%.
Inoculation of the reactor was from an overnight seed culture containing 5-40 g/L of a carbon source such as glucose, sorbitol, or lactose, and 5-40 g/L of corn steep liquor. Inoculation percentage ranged from 5-20% of initial fill volume. Once inoculated, the reactor was fed with a 70% solution of the selected carbon source until the reactor was filled and/or desired supernatant peptide concentration was achieved, approximately 96-140 hours and 0.8-1.2 g/L, respectively.

Helicoverpa zea = assay: Lepidoptera injection assay, corn earworm (CEW); format: in vivo; conditions: for KD50 CEW: third instar larva, 2 μL injection, scored at 24-hours post-injection; for knock-down effects compared to Av3b: CEW and FAW injection, KD50
Protocol: (§1) An injection assay was performed on Helicoverpa zea (corn earworm or “CEW”) and Spodoptera frugiperda (fall armyworm or “FAW”). Injections comprised a given Av3b mutant peptide combined with water to arrive at the planned dose. The Av3b mutants included Av3bM24; Av3bM165; Av3bM103; and Av3bM170. Av3b was used as a control.
(§2) Insects were reared on an artificial diet prepared from General Purpose Lepidoptera diet (Frontier Scientific, Newark, DE 19713, product No. F9772) according to the manufacturer's instructions. To perform the insect injection bioassay, 5 mL of hot diet was dispensed into the well of a rearing tray (Bio-Service Inc., Bio-RT-32), with 8 wells per injection treatment. The hot diet was then allowed to cool and solidify. Next, third instar larva were incubated on ice in order to immobilize them. Injections were prepared on a hand-microapplicator with injection solution (>100 μL) in 1-cc all-glass syringe having a 30 gauge straight needle. Air bubbles were removed from the syringe, and the syringe was set it up on the microapplicator. Injection volume was adjusted in the microapplicator at 2 μL.
(§3) To inject the larva, the insects were picked up and positioned close to the injection needle. The needle was allowed to penetrate the cuticle of the third pro-leg of the larva. The injection knob of the microapplicator was then rotated to inject a 2 μL solution into hemolymph from the third pro-leg. After injection the larva maintained on the needle for a few seconds to make sure the injected solution was absorbed. Then, the larva were gently removed from the needle and placed into the wells of prepared tray, along with 5 mL of solidified diet per well. Finally, the tray was sealed with vent covers.
(§4) Injected larva were incubated at 28° C. in an insect incubator, and scored at 24-hours post-injection based on their condition. Insect conditions were categorized as follows: alive (walking, eating, normal behavior); affected (showing toxic symptoms, such as tremors, writhing, unbalanced gait, or a combination thereof), knockdown (paralyzed albeit able to move with gentle poke); and dead (unmoving, discoloration, or a combination thereof).

Spodoptera frugiperda = assay: Lepidoptera injection assay, fall armyworm (FAW); format: in vivo; conditions: third instar larva, 2 μL injection, scored at 24-hours post-injection
Protocol: as §1, §2, §3, §4

[3] = Circular dichroism assay, melting temperature; format: physicochemical; conditions: 10 mM Na3PO4 solution, pH 5.9; 20° C. to 98° C.
Protocol: A JASCO J-1500 CD spectrometer (JASCO, 28600 Mary's Court, Easton, MD 21601 USA) was used to measure the CD spectrum and the secondary structure information of the Av3bM24, Av3bM165, Av3bM103, and Av3bM170 peptides (with Av3b as a comparator). The peptides were prepared in 10 mM Na3PO4 solution, pH 5.9, and loaded into the cuvette for CD spectrum measurement. Measurements were processed with a light wavelength scan ranging from 180 nm to 250 nm, with a 1 nm interval; the temperature graduate changed from 20° C. to 98° C., with 2° C. interval.

[4] = Thermo-stability at 54° C. in pH 4.0 solution; format: physicochemical; conditions: for peptide change on day 14: pH 4.0, 54° C., HPLC peak area, + mass increase, − mass loss; for thermo-stability at 54° C.: pH 4.0 solution, up to 14 days
Protocol: A thermo-stability study was performed for Av3b, Av3bM24, Av3bM165, Av3bM103, and Av3bM170 in a pH 4.0 solution at 54° C. for 0, 3, 7, 10, 12, and 14 days, with a caffeine internal control to cancel variation from evaporation. Samples of 1 mL were prepared in 1.5 mL microtube with sodium acetate buffer (NaOAc) at pH 4.0, containing 0.1 μg/μL of peptide, and 0.025 μg/μL of caffeine. The samples were incubated at 54° C. in a dry mixer. At 0, 3, 7, 10, 12, and 14 days, 20 μL of each sample was analyzed via analytic rpHPLC system to evaluate peptide loss. Each sample contained a fixed amount caffeine, which was used to compensate the peptide HPLC UV absorbance peak change due to volume change by evaporation. FIG. 68.

[5] = Stability of purified peptide spiked into Av3b fermentation beer (rpHPLC); format: physicochemical
Protocol: To determine the stability of the new mutants, Av3bM19, Av3bM23, Av3bM24, Av3bM25, Av3bM27, and Av3bM28 were purified and incubated in Av3b fermentation beer. The mutants were purified by cation-exchange chromatography using a GE SP-Sephadex C-25 column. The column was first calibrated with 30 mM sodium citrate buffer at pH 3.0. Then, the culture supernatant containing the secreted mutant peptide was loaded into the column to let the mutant peptide bind to the resin. The column was then washed with 30 mM sodium citrate buffer, pH 3.0, followed by washing with 30 mM sodium acetate, pH 4.0. Next, the bound mutant peptide was eluted by 1 M or 2 M NaCl with 30 mM sodium acetate, pH 4.0. The elution was then concentrated and buffer-exchanged to 30 mM sodium acetate, pH 4.0 using a 1 kD cutoff spin concentrator.
After purification, each of the mutants, Av3bM19, Av3bM23, Av3bM24, Av3bM25, Av3bM27, and Av3bM28, were evaluated for stability by spiking them into Av3b strain fermentation beer at pH 6.5. As a negative control, Av3b was evaluated in a pH 4.0 buffer. As a positive control, purified Av3b was evaluated by spiking into the same Av3b fermentation beer at pH 6.5. All stability experiments were performed at room temperature. […] The amount of peptide remaining relative to the beginning was determined by normalizing the peak area at different time to the one at 0 hour for each treatment. The degradation trend is visualized by the bar graph of the relative remaining peptide amount trend.

[6] = Stability of Av3b mutants in insect gut extract; format: in vitro ADME, Helicoverpa zea; conditions: H. zea gut extract, room temperature
Protocol: To test the stability of the Av3b mutants in the gut enzymes of a lepidopteran pest, the gut extract were prepared from Helicoverpa zea (Corn Earworm or “CEW”). Corn Earworm insects were obtained commercially from Benzon Research (Carlisle, PA) as eggs. Hatched larvae were raised on artificial diet until ⅘^th instar (20 mm long) before guts were isolated. Before gut extraction, larvae were anesthetized using CO2. The larva was then pinned on the dissection plate at both the head and the tail. Using dissection scissors, the cuticle was nicked. The dissection scissors were then inserted into the nick and the […] along the insect. The cuticle was then carefully pulled back and pinned open to reveal the digestive track. Using DI water, the insect was thoroughly rinsed to remove hemolymph.
After the insect guts were extracted from the larva, they were spun at 15000 rpm for 5 minutes. The resulting supernatant is the “insect gut extract” that was used to determine peptide stability. Av3b mutant peptide was mixed with the gut extract to […] of 2 μg/μL, and incubated at room temperature. At time points between 0-100 hours, 6 μL of a given sample was mixed with 93 μL dH2O followed by the addition of 1 μL of a 2% trifluoracetic acid solution to stop the reaction. The sample was then analyzed by rpHPLC to determine the peptide loss during the gut extract treatment.

Sequence	Degradation? [1]	degradation product during fermentation (HPLC) [1]	degradation detected via HPLC and LC/MS [2]	KD50 CEW (Helicoverpa zea)	KD50 FAW (Spodoptera frugiperda)	CD Melting temperature [3]	peptide change on day 14 [4]	thermo-stability at 54° C. [4]	half-degradation time ([5]; Av3b production fermentation beer pH 6.5, room temperature (Example 11, FIG. 37))	half-degradation time ([5]; Av3b production fermentation beer pH 6.5, room temperature (Example 12, FIG. 39))	peptide remaining ([5]; fermentation beer pH 6.5, room temperature, 248 hours, HPLC peak area relative to starting amount)	stability of peptide in pH 4 buffer (negative control) ([5]; pH 4 buffer, room temperature)	knock-down effects compared to Av3b (Helicoverpa zea)	half conversion time to Av3b peptide [6]	time stable in solution at 54° C. ([4]; pH 4 NaOAc buffer, 54° C.)
KSCCPCYWGGCPWGQNCYPEGCGGPG [Av3bM170]	No	did not show any degradation product	degradation was not detected	104 pmol/g	495±148 pmol/g and 495 ± 148 (N = 2) pmol/g	70 °C	+4.6%	thermo-stable							
KSCCPCYWGGCPWGQNCYPEGCSGPK [Av3b, reference compound]		showed degradation during fermentation	degradation was detected	367 ± 166 (N = 6) pmol/g	883 ± 25 (N = 2) pmol/g	69.3 °C	+8.3%	thermo-stable	46 h and 46.34 h	56 h and 56.087 h	3.8%	no loss of the peptide; also recorded: stable in pH 4 buffer			
KSCCPCYWGGCPWGQNCYPEGCSGPKVG [Av3bM165]	No	did not show any degradation product; also recorded: without apparent degradation products	degradation was not detected	389 pmol/g	578 pmol/g	80 °C	+4.2%	thermo-stable					comparable knock-down effects to Av3b	5.3 min	
KSCCPCYWGGCPWGQNCYPEGCSGPG (ends and bridges not checked; cysteine pairing not given here) [Av3bM103]	No	did not show any degradation product; also recorded: prevent degradation	degradation was not detected	518 ± 390 (N = 2) pmol/g	879 pmol/g	82 °C	−64.1%	not thermo-stable					comparable knock-down effects to Av3b		7 days
